The values below come from patent US20240158475A1.

Where a chain is given by its changes, count along the chain named.

The target of experiment [1] is DN-III-NS antigen (produced by Fapon Biotech InC.) (dengue virus). As to the kind of experiment: capture ELISA, antibody sample 9-fold dilution.
Experiment [2] shares this target. As to the kind of experiment: capture ELISA, antibody sample 81-fold dilution.
Experiment [3] shares this target. As to the kind of experiment: capture ELISA, antibody sample 27-fold dilution. Background: In an ELISA, binding on a coated surface is turned into a signal by an enzyme label.
Experiment [4] has the same target. Kind of experiment: capture ELISA (anti-mouse IgG / antibody / antigen / HRP-mAb), antibody sample Original.
The target is the same in experiment [5]. Kind of experiment: capture ELISA, antibody sample 729-fold dilution.
Experiment [6] has the same target. Kind of experiment: capture ELISA, antibody sample 243-fold dilution.
For experiment [7] the target is unchanged. Kind of experiment: capture ELISA, antibody sample 3-fold dilution.
The target of experiment [8] is DN-III quality control recombinant protein (produced by Fapon Biotech InC.) (dengue virus). As to the kind of experiment: BLI, AMC sensor, antibody captured. Background: BLI is a label-free optical method that tracks binding on a fibre tip over time.

B1: Mutation 2 (antibody, V domains shown)
VH: EVQLQQSGTELVRPGALVKLSCKASGFNIKDYYVHWVKQRPRQGLEWIGWIDPNNGKTLYDPKYQDKASITSDTSTNTAYLQLRSLTSEDTAVYYCVTAYVRFVYWGQGTLVTVSA
VL: QIVLTQSPAIMSAFPGERVTMTCSASSSVRYMYWHQQKPGSSPRLLIYDTSNVASGVPVRFSGSGSGTSYSLTISRDEAMDAATYYCQQYSSTPRTFGGGTKLEIKR
Take B1: the OD450 (ref. 630 nm) in experiment [1] was determined as 2.13 OD; in experiment [2], 0.689 OD; in experiment [3], 1.56 OD; in experiment [4] it was 2.27 OD; in experiment [5], 0.158 OD; in experiment [6], 0.204 OD. The molecule also had an OD450 (ref. 630 nm) in experiment [7] of 2.25 OD.

B2: Mutation 1-5 (antibody, V domains shown)
VH: B1 VH with V34L, N54E, L59I, Y64F, T98S, V101Y
VL: B1 VL with S27T, Y90W, T93F
The Kd is the constant that tells how readily two partners part at equilibrium. As a reminder, the koff is the rate constant with which the complex falls apart. What is called kon is the rate constant with which the complex forms. Regarding B2, in experiment [8], the Kd turned out to be 0.43 nM, the koff was 2.11e-05 s⁻¹ and the kon is 49700 M⁻¹ s⁻¹.

B3: anti-dengue virus NS1 3D5 monoclonal antibody (recombinant, expressed in CHO cells) (antibody, mouse IgG1, kappa, V domains shown)
VH: B1 VH with L59I, Y64F
VL: B1 VL with S27T, R30K, D49E, V53I, Y90W, T93Y
As for B3, the OD450 (ref. 630 nm) in experiment [1] is 2.22 OD; in experiment [2], 0.696 OD; in experiment [3], 1.57 OD; in experiment [4], 2.34 OD; in experiment [5], 0.169 OD; in experiment [6], 0.281 OD. The OD450 (ref. 630 nm) in experiment [7] was 2.31 OD. Besides, in experiment [8], the Kd was 3.09 nM. Moreover, the koff in experiment [8] is 0.000137 s⁻¹. In addition, in experiment [8], the kon was determined as 44300 M⁻¹ s⁻¹.

B4: Mutation 1-2 (antibody, V domains shown)
VH: B1 VH with V34L, N54E, Y64F, V101Y
VL: B1 VL with Y90W, T93F
Turning to B4, in experiment [8], the Kd came out at 0.103 nM, the koff is 4.99e-05 s⁻¹ and the kon came to 483000 M⁻¹ s⁻¹.

B5: Mutation 1-20 (antibody, V domains shown)
VH: B1 VH with N54E, Y64F, T98S, V101Y
VL: B1 VL with Y90W
B5: in experiment [8], the Kd stood at 0.41 nM, the koff was found to be 1.66e-05 s⁻¹ and the on-rate constant (kon) amounted to 40900 M⁻¹ s⁻¹.

B6: Mutation 4 (antibody, V domains shown)
VH: B1 VH with D31R, N54R, Y64V
VL: B1 VL with R30I, D49W, V57Y, Y90V
B6: the OD450 (ref. 630 nm) in experiment [1] was 0.014 OD; in experiment [4] it was 0.892 OD; in experiment [7] it was 0.102 OD.

B7: Mutation 1-6 (antibody, V domains shown)
VH: B1 VH with N54E, L59I, Y64F
VL: B1 VL with S27T, V53I, Y90W
In the case of B7, in experiment [8], the Kd was 0.8 nM, the koff came to 3.72e-05 s⁻¹ and the kon worked out at 46700 M⁻¹ s⁻¹.

B8: Mutation 1-4 (antibody, V domains shown)
VH: B1 VH with V34I, N54E, Y64F, T98S, V101F
VL: B1 VL with V53L, Y90W, T93Y
B8: in experiment [8], the equilibrium dissociation constant (Kd) came out at 0.29 nM, the koff was determined as 1.04e-05 s⁻¹ and the kon came out at 36200 M⁻¹ s⁻¹.

B9: Mutation 3 (antibody, V domains shown)
VH: B1 VH with D31L, N54K, Y64C
VL: B1 VL with R30V, D49C, V57L, Y90R
B9: the OD450 (ref. 630 nm) was 0.21 OD in experiment [1], 0.031 OD in experiment [3], 1.05 OD in experiment [4] and 0.879 OD in experiment [7].

B10: Mutation 1-12 (antibody, V domains shown)
VH: B1 VH with N54E, Y64F, V101F
VL: B1 VL with S27T, V53I, Y90W
As for B10, in experiment [8], the Kd is 1.09 nM, the koff came out at 4.55e-05 s⁻¹ and the kon came out at 41800 M⁻¹ s⁻¹.

B11: Mutation 1-14 (antibody, V domains shown)
VH: B1 VH with V34L, N54E, Y64F, T98S
VL: B1 VL with S27T, Y90W, T93F
B11: in experiment [8], the Kd is 0.111 nM, the koff turned out to be 4.53e-05 s⁻¹ and the kon is 408000 M⁻¹ s⁻¹.

B12: Mutation 1-16 (antibody, V domains shown)
VH: B1 VH with V34I, N54E, Y64F, T98S
VL: B1 VL with Y90W, T93Y
With B12, in experiment [8], the Kd stood at 0.8 nM, the koff was found to be 3.04e-05 s⁻¹ and the kon is 38100 M⁻¹ s⁻¹.

B13: Mutation 1-21 (antibody, V domains shown)
VH: B1 VH with N54E, L59I, Y64F, T98S, V101F
VL: B1 VL with V53L, Y90W, T93F
For the molecule B13, in experiment [8], the dissociation constant Kd was determined as 0.66 nM, the koff amounted to 1.31e-05 s⁻¹ and the kon was 32300 M⁻¹ s⁻¹.

B14: Mutation 1-7 (antibody, V domains shown)
VH: B1 VH with V34I, N54E, Y64F, V101F
VL: B1 VL with V53L, Y90W, T93Y
Regarding B14, in experiment [8], the Kd is 0.11 nM, the koff was 3.91e-05 s⁻¹ and the kon was 357000 M⁻¹ s⁻¹.

B15: Mutation 1-18 (antibody, V domains shown)
VH: B1 VH with N54E, Y64F, T98S
VL: B1 VL with V53L, Y90W
Turning to B15, in experiment [8], the Kd was found to be 0.9 nM, the koff was 3.99e-05 s⁻¹ and the kon is 44500 M⁻¹ s⁻¹.

B16: Mutation 1-22 (antibody, V domains shown)
VH: B1 VH with V34I, N54E, Y64F, T98S, V101Y
VL: B1 VL with S27T, V53L, Y90W, T93F
B16: in experiment [8], the Kd came out at 0.87 nM, the koff worked out at 3.2e-05 s⁻¹ and the kon was 48400 M⁻¹ s⁻¹.

B17: Mutation 1-15 (antibody, V domains shown)
VH: B1 VH with N54E, L59I, Y64F, V101Y
VL: B1 VL with S27T, V53I, Y90W
Regarding B17, in experiment [8], the Kd came out at 0.42 nM, the koff stood at 1.89e-05 s⁻¹ and the association rate constant (kon) amounted to 45200 M⁻¹ s⁻¹.

B18: Mutation 1-10 (antibody, V domains shown)
VH: B1 VH with V34I, N54E, L59I, Y64F, T98S, V101F
VL: B1 VL with S27T, V53L, Y90W, T93Y
On to B18, for which, in experiment [8], the Kd amounted to 1.14 nM, the koff was 4.21e-05 s⁻¹ and the kon was 36900 M⁻¹ s⁻¹.

B19: Mutation 1-13 (antibody, V domains shown)
VH: B1 VH with V34I, N54E, L59I, Y64F, V101Y
VL: B1 VL with V53L, Y90W, T93Y
Turning to B19, in experiment [8], the Kd worked out at 0.49 nM, the koff turned out to be 2.08e-05 s⁻¹ and the kon amounted to 42400 M⁻¹ s⁻¹.

B20: Mutation 1-19 (antibody, V domains shown)
VH: B1 VH with V34I, N54E, L59I, Y64F, T98S, V101F
VL: B1 VL with S27T, Y90W, T93Y
Regarding B20, in experiment [8], the Kd came to 4.1 nM, the koff turned out to be 4.34e-05 s⁻¹ and the kon was 31400 M⁻¹ s⁻¹.

B21: Mutation 1 (antibody, V domains shown)
VH: B1 VH with N54E, Y64F
VL: B1 VL with Y90W
Take B21: the OD450 (ref. 630 nm) was found to be 2.29 OD in experiment [1]; 0.918 OD in experiment [2]; 1.9 OD in experiment [3]; 2.37 OD in experiment [4]; 0.188 OD in experiment [5]; 0.361 OD in experiment [6]. Moreover, in experiment [7], the OD450 (ref. 630 nm) is 2.38 OD. Also, the Kd in experiment [8] was 1.07 nM. Also, the koff in experiment [8] came to 4.03e-05 s⁻¹. In experiment [8], the kon was determined as 37700 M⁻¹ s⁻¹.

B22: Mutation 1-3 (antibody, V domains shown)
VH: B1 VH with N54E, L59I, Y64F, T98S
VL: B1 VL with S27T, V53I, Y90W
As for B22, in experiment [8], the Kd came to 0.32 nM, the koff worked out at 1.51e-05 s⁻¹ and the kon was 47400 M⁻¹ s⁻¹.

B23: Mutation 1-17 (antibody, V domains shown)
VH: B1 VH with V34L, N54E, L59I, Y64F, T98S, V101F
VL: B1 VL with S27T, V53I, Y90W, T93F
In the case of B23, in experiment [8], the Kd is 0.78 nM, the koff was found to be 2.71e-05 s⁻¹ and the kon stood at 34600 M⁻¹ s⁻¹.

B24: Mutation 1-9 (antibody, V domains shown)
VH: B1 VH with N54E, Y64F, T98S
VL: B1 VL with V53I, Y90W
For B24, in experiment [8], the Kd turned out to be 0.45 nM, the off-rate constant (koff) worked out at 1.35e-05 s⁻¹ and the kon was found to be 30100 M⁻¹ s⁻¹.

B25: Mutation 1-8 (antibody, V domains shown)
VH: B1 VH with V34L, N54E, L59I, Y64F, V101Y
VL: B1 VL with S27T, Y90W, T93F
Take B25: in experiment [8], the Kd was 0.7 nM, the koff stood at 2.33e-05 s⁻¹ and the kon came to 33200 M⁻¹ s⁻¹.

B26: Mutation 1-11 (antibody, V domains shown)
VH: B1 VH with V34L, N54E, Y64F, T98S, V101Y
VL: B1 VL with Y90W, T93F
As for B26, in experiment [8], the equilibrium dissociation constant (Kd) came to 0.87 nM, the koff was found to be 2.83e-05 s⁻¹ and the kon was 32400 M⁻¹ s⁻¹.
